# According to paper PMC11513889:
# B1: mARC1 (Homo sapiens) (protein)
# chain: GAAGSSALARFVLLAQSRPGWLGVAALGLTAVALGAVAWRRAWPTRRRRLLQQVGTVAQLWIYPVKSCKGVPVSEAECTAMGLRSGNLRDRFWLVINQEGNMVTARQEPRLVLISLTCDGDTLTLSAAYTKDLLLPIKTPTTNAVHKCRVHGLEIEGRDCGEATAQWITSFLKSQPYRLVHFEPHMRPRRPHQIADLFRPKDQIAYSDTSPFLILSEASLADLNSRLEKKVKATNFRPNIVISGCDVYAEDSWDELLIGDVELKRVMACSRCILTTVDPDTGVMSRKEPLETLKSYRQCDPSERKLYGKSPLFGQYFVLENPGTIKVGDPVYLLGQ
# Substrate: NC(=O)NO
# Assay: purified protein
# Conditions: 1 mM NADH, NB5R3, CYB5B, 20 mM MES pH 6.0, 37 °C
protein,measurement,value
B1,Km,7 mM
